The results in this text go back to patent US20180273587A1 (AILERON THERAPEUTICS, published 2018).

Positions of bridges follow the written chain, without caps; N, C: chain ends. Non-standard residues stand in square brackets, D forms with d. αMeW = C[C@](N)(Cc1c[nH]c2ccccc12)C(=O)O; R8 = C=CCCCCCC[C@@](C)(N)C(=O)O; S5 = C=CCCC[C@](C)(N)C(=O)O; Ac6c = NC1(C(=O)O)CCCCC1; Aib = CC(C)(N)C(=O)O

Common to all, as to assay: Ki table, method not stated
The target in one assay is T1, MCL-1 (UniProt Q07820 172-327, limits assumed).
T1 construct: also called Myeloid cell leukemia 1

The next assay deals with BCL-XL (UniProt Q07817 1-209).
Another assay deals with BCL-2 (UniProt P10415 1-217, limits assumed).
BCL-2, sequence (P10415 1-217 limits assumed): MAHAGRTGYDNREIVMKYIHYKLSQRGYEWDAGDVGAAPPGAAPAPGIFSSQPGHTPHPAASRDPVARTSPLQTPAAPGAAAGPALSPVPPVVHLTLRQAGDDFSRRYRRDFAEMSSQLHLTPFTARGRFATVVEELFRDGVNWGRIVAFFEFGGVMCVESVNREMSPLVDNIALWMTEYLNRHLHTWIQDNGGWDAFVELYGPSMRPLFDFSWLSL

T1 sequence (Q07820 172-327 limits assumed): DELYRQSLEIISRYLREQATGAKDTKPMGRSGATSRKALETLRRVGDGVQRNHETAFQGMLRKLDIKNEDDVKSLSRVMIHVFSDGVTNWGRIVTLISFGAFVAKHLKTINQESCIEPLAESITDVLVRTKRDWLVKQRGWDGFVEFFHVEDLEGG
BCL-XL, sequence (Q07817 1-209): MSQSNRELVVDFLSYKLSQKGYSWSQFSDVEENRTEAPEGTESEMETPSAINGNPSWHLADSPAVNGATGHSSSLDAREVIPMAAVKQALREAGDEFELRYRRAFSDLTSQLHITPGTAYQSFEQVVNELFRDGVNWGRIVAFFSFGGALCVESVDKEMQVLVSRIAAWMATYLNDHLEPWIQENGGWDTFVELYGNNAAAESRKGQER

B1: SEQ ID NO: 1714 (peptide)
peptide: Ac-IW[Ac6c]AQALR[R8]IGDAFN[S5]YYA-NH2
modifications: staple 9-16
SMILES: CC[C@H](C)[C@H](NC(C)=O)C(=O)N[C@@H](Cc1c[nH]c2ccccc12)C(=O)NC1(C(=O)N[C@@H](C)C(=O)N[C@@H](CCC(N)=O)C(=O)N[C@@H](C)C(=O)N[C@@H](CC(C)C)C(=O)N[C@@H](CCCNC(=N)N)C(=O)N[C@]2(C)CCCCCCC=CCCC[C@@](C)(C(=O)N[C@@H](Cc3ccc(O)cc3)C(=O)N[C@@H](Cc3ccc(O)cc3)C(=O)N[C@@H](C)C(N)=O)NC(=O)[C@H](CC(N)=O)NC(=O)[C@H](Cc3ccccc3)NC(=O)[C@H](C)NC(=O)[C@H](CC(=O)O)NC(=O)CNC(=O)[C@H]([C@@H](C)CC)NC2=O)CCCCC1
notes: also called Ac-IWAc6cAQALR$r8IGDAFN$YYA-NH2
B1: the Ki – broadly, a dissociation constant, usually derived from enzyme kinetics or from competition with a known ligand – came out at 0.0104 µM with MCL-1, 0.0077 µM with BCL-XL and 0.0257 µM with BCL-2.

B2: SEQ ID NO: 1704 (peptide)
peptide: Ac-I[Aib]IAQALR[R8]IGDAFN[S5]YYA-NH2
modifications: staple 9-16
SMILES: CC[C@H](C)[C@H](NC(C)=O)C(=O)NC(C)(C)C(=O)N[C@H](C(=O)N[C@@H](C)C(=O)N[C@@H](CCC(N)=O)C(=O)N[C@@H](C)C(=O)N[C@@H](CC(C)C)C(=O)N[C@@H](CCCNC(=N)N)C(=O)N[C@]1(C)CCCCCCC=CCCC[C@@](C)(C(=O)N[C@@H](Cc2ccc(O)cc2)C(=O)N[C@@H](Cc2ccc(O)cc2)C(=O)N[C@@H](C)C(N)=O)NC(=O)[C@H](CC(N)=O)NC(=O)[C@H](Cc2ccccc2)NC(=O)[C@H](C)NC(=O)[C@H](CC(=O)O)NC(=O)CNC(=O)[C@H]([C@@H](C)CC)NC1=O)[C@@H](C)CC
notes: also called Ac-IAibIAQALR$r8IGDAFN$YYA-NH2
Consider B2, for which the Ki with MCL-1 amounted to 0.0425 µM; in the assay with BCL-XL it was 0.0835 µM; with BCL-2, 0.0979 µM.

B3: SEQ ID NO: 1703 (peptide)
peptide: Ac-I[αMeW]IAQALR[R8]IGDAFN[S5]YYA-NH2
modifications: staple 9-16
SMILES: CC[C@H](C)[C@H](NC(C)=O)C(=O)N[C@@](C)(Cc1c[nH]c2ccccc12)C(=O)N[C@H](C(=O)N[C@@H](C)C(=O)N[C@@H](CCC(N)=O)C(=O)N[C@@H](C)C(=O)N[C@@H](CC(C)C)C(=O)N[C@@H](CCCNC(=N)N)C(=O)N[C@]1(C)CCCCCCC=CCCC[C@@](C)(C(=O)N[C@@H](Cc2ccc(O)cc2)C(=O)N[C@@H](Cc2ccc(O)cc2)C(=O)N[C@@H](C)C(N)=O)NC(=O)[C@H](CC(N)=O)NC(=O)[C@H](Cc2ccccc2)NC(=O)[C@H](C)NC(=O)[C@H](CC(=O)O)NC(=O)CNC(=O)[C@H]([C@@H](C)CC)NC1=O)[C@@H](C)CC
notes: also called Ac-IAmWIAQALR$r8IGDAFN$YYA-NH2
On to B3, for which the Ki with MCL-1 stood at 0.0099 µM; with BCL-XL, 0.0174 µM; in the assay with BCL-2 it was 0.0706 µM.

B4: SEQ ID NO: 1708 (peptide)
peptide: Ac-IWIA[Aib]ALR[R8]IGDAFN[S5]YYA-NH2
modifications: staple 9-16
SMILES: CC[C@H](C)[C@H](NC(C)=O)C(=O)N[C@@H](Cc1c[nH]c2ccccc12)C(=O)N[C@H](C(=O)N[C@@H](C)C(=O)NC(C)(C)C(=O)N[C@@H](C)C(=O)N[C@@H](CC(C)C)C(=O)N[C@@H](CCCNC(=N)N)C(=O)N[C@]1(C)CCCCCCC=CCCC[C@@](C)(C(=O)N[C@@H](Cc2ccc(O)cc2)C(=O)N[C@@H](Cc2ccc(O)cc2)C(=O)N[C@@H](C)C(N)=O)NC(=O)[C@H](CC(N)=O)NC(=O)[C@H](Cc2ccccc2)NC(=O)[C@H](C)NC(=O)[C@H](CC(=O)O)NC(=O)CNC(=O)[C@H]([C@@H](C)CC)NC1=O)[C@@H](C)CC
notes: also called Ac-IWIAAibALR$r8IGDAFN$YYA-NH2
B4: the Ki worked out at 0.0055 µM with MCL-1, 0.059 µM with BCL-XL and 0.12 µM with BCL-2.
